Measured values reported in patent US20090280132A1.

Molecular target: Fc receptor (FcR) on antigen presenting cells
Experiment: cell-based or functional assay

- inhibition of IL-2 production in Ig-PLP1 mediated activation of 4E3 T cells: 50%
Substance: Ig-W (from UniProt P01867 1-335) (antibody)
